Patent publication US20240270853A1 (Chugai, published 2024)

How the values were obtained:
[1] = molecular target: T1, mouse DDR2 delta DSL-EJXM (stably expressed on Ba/F3 cell line) (mouse, UniProt Q62371 22-854); test: flow cytometry on Ba/F3 cells expressing mouse DDR2 delta DSL-EJXM
T1 construct: Full length mouse DDR2 with Gln201-Val393 deleted; also called mouse DDR2 fragment with DSL domain and EJXM region (Gln201-Val393) deleted
T1 sequence: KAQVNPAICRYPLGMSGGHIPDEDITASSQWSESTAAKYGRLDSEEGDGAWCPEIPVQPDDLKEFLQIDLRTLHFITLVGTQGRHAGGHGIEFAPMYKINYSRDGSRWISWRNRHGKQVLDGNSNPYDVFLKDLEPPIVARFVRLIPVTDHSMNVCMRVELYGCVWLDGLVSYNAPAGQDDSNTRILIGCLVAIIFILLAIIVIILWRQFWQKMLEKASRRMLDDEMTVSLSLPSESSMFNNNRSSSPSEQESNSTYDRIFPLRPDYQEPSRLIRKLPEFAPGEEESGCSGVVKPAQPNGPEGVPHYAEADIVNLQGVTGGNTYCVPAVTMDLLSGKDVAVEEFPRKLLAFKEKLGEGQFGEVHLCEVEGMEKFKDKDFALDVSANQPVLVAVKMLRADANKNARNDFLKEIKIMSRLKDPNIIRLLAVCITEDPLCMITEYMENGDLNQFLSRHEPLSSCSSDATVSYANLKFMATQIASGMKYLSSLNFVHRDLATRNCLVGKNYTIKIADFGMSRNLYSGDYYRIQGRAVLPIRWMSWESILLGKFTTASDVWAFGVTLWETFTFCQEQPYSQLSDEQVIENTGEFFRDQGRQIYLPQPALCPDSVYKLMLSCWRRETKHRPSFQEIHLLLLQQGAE
Description: Mean Fluorescent Intensity (MFI) of each antibody was measured by flow cytometry using Ba/F3 cell line that stably expresses mouse DDR2 fragment in which Discoidin-like (DSL) domain and extracellular juxtamembrane (EJXM) region were deleted from full length mouse DDR2 (mouse DDR2 delta DSL-EJXM). Names under the horizontal axis are names of the tested antibodies. IC17dK is an anti-KLH antibody used as a negative control.
To map more detailed binding epitope of anti-DDR2 antibodies, fragment of mouse DDR2, in which discoidin-like (DSL) domain and extracellular juxtamembrane (EJXM) region (Gln201-Val393) are deleted from full length mouse DDR2 (mouse DDR2 delta DSL-EJXM) was made. Mouse DDR2 delta DSL-EJXM stably-expressing Ba/F3 cell line was prepared. Binding of the antibodies to this cell line was measured by flow cytometry and MFI value was acquired. Epitope of antibodies which can bind to full length mouse DDR2 but not to mouse DDR2 delta DSL-EJXM would be DSL-EJXM region. Epitope of antibodies which can bind to both full length mouse DDR2 and mouse DDR2 delta DSL-EJXM would be discoidin (DS) domain. In Table2, “Yes” means that tested antibody can bind to the cell line and “No” means that antibody cannot bind to the cell line.

[2] = molecular target: T2, full length mouse DDR2 (stably expressed on Ba/F3 cell line) (mouse, UniProt Q62371 22-854); test: flow cytometry on Ba/F3 cells expressing full length mouse DDR2, one-arm format
T2 construct: also called moDDR2
T2 sequence: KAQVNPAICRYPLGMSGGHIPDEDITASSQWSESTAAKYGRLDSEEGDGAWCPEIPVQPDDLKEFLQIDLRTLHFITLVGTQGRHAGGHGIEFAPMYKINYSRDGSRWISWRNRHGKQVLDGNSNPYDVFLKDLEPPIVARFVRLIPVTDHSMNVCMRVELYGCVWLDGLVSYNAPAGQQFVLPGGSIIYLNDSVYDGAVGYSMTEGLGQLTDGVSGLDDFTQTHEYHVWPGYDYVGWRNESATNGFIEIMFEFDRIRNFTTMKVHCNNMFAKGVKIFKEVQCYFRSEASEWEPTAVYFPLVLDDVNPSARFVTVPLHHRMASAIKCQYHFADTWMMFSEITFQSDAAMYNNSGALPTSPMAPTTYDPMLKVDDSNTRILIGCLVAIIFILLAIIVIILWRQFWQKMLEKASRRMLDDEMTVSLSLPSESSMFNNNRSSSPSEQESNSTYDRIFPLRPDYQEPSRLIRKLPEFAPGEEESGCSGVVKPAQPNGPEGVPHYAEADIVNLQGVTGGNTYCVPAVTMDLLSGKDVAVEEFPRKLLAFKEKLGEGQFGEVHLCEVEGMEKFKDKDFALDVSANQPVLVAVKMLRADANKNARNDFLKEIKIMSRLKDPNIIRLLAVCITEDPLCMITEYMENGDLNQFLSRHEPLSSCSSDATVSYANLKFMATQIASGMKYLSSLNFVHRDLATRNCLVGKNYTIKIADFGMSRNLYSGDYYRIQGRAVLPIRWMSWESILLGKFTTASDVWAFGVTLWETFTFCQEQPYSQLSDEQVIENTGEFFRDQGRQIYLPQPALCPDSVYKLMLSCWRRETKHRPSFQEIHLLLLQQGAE
Description: Mean Fluorescent Intensity (MFI) of each antibody was measured by flow cytometry using Ba/F3 cell line that stably expresses full length mouse DDR2. Names under the horizontal axis are names of the tested antibodies. IC17dK is an anti-KLH antibody used as a negative control.
To determine antibody binding to mouse DDR2, flow cytometry analysis was carried out by using mouse-DDR2-stably-expressing Ba/F3 cell line. One-arm format antibodies, which contains one antibody variable region in each molecule, were prepared to evaluate the binding by affinity mode.

B1: DAB0009 (antibody, V domains shown)
VH: QSVEESGGRLVTPGTPLTLTCAVSGFSLNSHVMGWVRQAPGRGLECIGIIAVSGDIYYANWAKGRFTISKTSTTVDLRITSPTTEDTATYFCGSPTVINNNNLWGQGTLVTVSS
VL: AQVLTQTASPVSAAVGGTVTINCQSSQNVYGNNYLSWFQQKPGQPPKLLIYSTSTLASGVSSRFKGSGSGTQFTLTISDLECADAATYYCLGGYDCNIVDCRAFGGGTKVEIK
notes: Variable regions from immunized rabbits
[1]
  binding result: no binding
[2]
  binding result: binds

B2: DAB0071 (antibody, V domains shown)
VH: QSLEESGGRLVTPGGSLTLTCTASGFSLSAYYMQWVRQAPGKGLEWIGWINTGGSAYYPSWARGRFTISKTSTTVDLKITSPTTEDTATYFCARSDASVHQFNLWGQGTLVTVSS
VL: DVVMTQTPASVEAAVGGTVTIKCQASESIGNALAWYQQRPGQPPKLLIYYASTLESGVPSRFKGSGSGTEFTLTISDLECADAATYYCQCTYGSGSSRGNAFGGGTKVEIK
notes: as for B1
[1]
  binding result: no binding
[2]
  binding result: binds

B3: DAB0052 (antibody, V domains shown)
VH: QSVEESGGRLVTPGTPLTLTCTVSGFSLNRYTGIWVRQAPGKGLEWIGIISSDDRTWYASWAKGRFTISKTSTTVDLKITSPTIEDTATYFCARDVGGDSWFWGLWGQGTLVTVSS
VL: DIVMTQTPASVEAAVGGTVTIKCQASQSISSWLAWYQQKPGQPPKLLIYYASTLASGVPSRFSGSGSGTEFTLTISDLECADAATYYCQSNYYSSSNSNYGHAFGGGTKVEIK
notes: as for B1
[1]
  binding result: no binding
[2]
  binding result: binds
